Measurements reported in PMC4794788, “Cell‐free synthesis of isotopically labelled peptide ligands for the functional characterization of G protein‐coupled receptors” (FEBS Open Bio, 2015).

Experiments:
[1] = molecular target: T1, human complement 5a receptor (C5aR) (Homo sapiens, UniProt P21730); assay: Saturation radioligand binding of [^3H]‐C5a^CF to C5aR in Sf9 membranes; conditions: radioligand 31 pM‐8 nM; human C5aR coproduced with Gαi2, Sf9 membranes (10–50 μg total protein); 120 min, room temperature; 50 mM Hepes‐NaOH pH 7.4, 5 mM MgCl2, 1 mM CaCl2, 0.5% BSA, 75 mM NaCl; nonspecific: 50 μM H2N‐ChaW; filtration, scintillation counting; means ± SEM from three or two independent experiments in triplicate; read-out: KD (dissociation constant)
T1 construct: 10x His (N); FLAG (N); StrepII (C); made in house; host or cells: Sf9 insect cells (recombinant baculovirus, pOET5 / flashBAC); membrane preparation
T1 sequence (P21730 1-350): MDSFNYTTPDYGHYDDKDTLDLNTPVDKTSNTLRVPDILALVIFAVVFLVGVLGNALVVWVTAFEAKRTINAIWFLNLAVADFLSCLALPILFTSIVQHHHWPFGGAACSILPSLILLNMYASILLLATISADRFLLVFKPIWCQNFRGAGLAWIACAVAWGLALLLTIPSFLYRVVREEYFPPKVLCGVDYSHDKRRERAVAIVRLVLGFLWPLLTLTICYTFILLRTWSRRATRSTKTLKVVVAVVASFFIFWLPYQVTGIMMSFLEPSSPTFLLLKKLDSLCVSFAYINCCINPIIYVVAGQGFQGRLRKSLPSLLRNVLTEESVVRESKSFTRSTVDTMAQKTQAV
Source text: The complement 5a receptor was coproduced with Gαi2 in Sf9 insect cells. The cDNA encoding the human complement 5a receptor flanked by an N‐terminal 10x His and FLAG tag and a C‐terminal StrepII tag was cloned into the pOET5 transfer vector (Oxford Expression Technologies, Oxford, UK). pOET5 contains two expression cassettes, the receptor is expressed under the control of a polyhedron promoter; Gαi2 expression is regulated by a p10 promoter. Recombinant baculoviruses were generated with the flashBAC protein expression system (Oxford Expression Technologies) according to manufacturer's instructions. […] Total membrane protein content was determined by the bicinchoninic acid (BCA) method using bovine serum albumin as the standard.
For the determination of binding parameters, membranes containing the respective receptors (10–50 μg total membrane protein) were incubated with cell‐free synthesized tritium‐labelled ligands in varying concentrations. Binding was terminated by rapid filtration over glass fibre filters pretreated with 0.3% polyethyleneimine using a Brandel harvester (Brandel, Alpha Biotech Ltd, Killearn, UK) and analysed by liquid scintillation counting. […]
Data are represented as means ± SEM from three or two independent experiments performed in triplicate and analysed in […] […]

C5aR = C5aR in native human tissues; literature comparison; cited from earlier work
Experimental: Table 1 Binding parameters of cell‐free synthesized radioligands | column: Literature KD [nM] || As the interaction between C5a and its receptor is mainly mediated by the disulphide bridged core region of C5a (residues 21–55, 22) and the C‐terminal region (especially Arg^74 30) the N‐terminal hexa‐histidine tag was not removed. The cell‐free synthesized ligand binds to the complement 5a receptor with a dissociation constant of 1.18 ± 0.27 nM (Fig. 4A), which corresponds to values determined by Gerard and Gerard for C5aR in native human tissues (1 nM 31, Table 1). Competition experiments with the unlabelled small molecule inverse agonist NDT 9513727 and the peptide antagonist H2N‐ChaW resu ...

B1: [^3H]‐C5a^CF: cell‐free‐synthesized tritium‐labelled complement 5a with N‐terminal hexa‐histidine tag; contains three proline residues (protein, UniProt P01031 678-751, looked up)
C5a anaphylatoxin: TLQKKIEEIAAKYKHSVVKKCCYDGACVNNDETCEQRAARISLGPRCIKAFTECCVVASQLRANISHKDMQLGR
modifications: C5a anaphylatoxin tritium label
In the case of B1, the Kd [1] is listed as 1.18 ± 0.27 nM and the Kd (C5aR) is listed as 1 nM.
